± gives the standard deviation of the averaged measurements.

This series deals with ATP. Briefly: switch fluorescence ratio, 500 uM ATP over buffer (Cy3 cluster intensity, sum of 5 cycles each) (fold (ratio)); higher = stronger signal-on switching upon ATP binding; sequences stand for … in TCGTCGGCAGCGTCAGATGTGTATAAGAGACAGTTTTTTTTTTTTTTTTTTTTTTTTT…TC. The following applies: aptamer strand: ATP DNA aptamer (quencher-CACCTGGGGGAGTATTGCGGAGGAAGG + anchor), 100 nM annealed; ATP concentration: 500 uM. In a few lines:
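The fluorescence ratio divides summed target-cycle Cy3 intensity by summed buffer-cycle Cy3 intensity for each cluster and is averaged per switch-domain sequence. Cy3-labelled switching-strand clusters on a modified Illumina MiSeq flow-cell were annealed to 100 nM quencher-labelled ATP aptamer, then imaged in selection buffer and again after 15 min with 500 uM ATP at 22 °C. Five such cycles were run, with NaOH stripping and re-annealing between them, and clusters outside 100-1000 RFU were excluded.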
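Note: ATP exposure 15 min at 22 °C before imaging.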

Consider AAGTTGTTGT, for which the switch fluorescence ratio is 1.007 ± 0.0025. Turning to AAGTTTGGAT, the switch fluorescence ratio worked out at 0.9919 ± 0.005. To AAGTTTGGGC belongs 0.98 ± 0.036. As for AAGTTTGTCT, the switch fluorescence ratio was 1.004 ± 0.0053. To AAGTTTGTTT belongs 0.99 ± 0.028. The same measure for AAGTTTTTTT: 1 ± 0.025.

In the case of AATAAAAGGG, the switch fluorescence ratio was determined as 1 ± 0.03. In the case of AATAAAATGG, the switch fluorescence ratio turned out to be 0.998 ± 0.028. The same measure for AATAAATGAT: 1.01 ± 0.022; for AATAAATTAA: 0.977 ± 0.031; for AATAAGACGG: 1.011 ± 0.0061. The same measure for AATAAGCACA: 1.2 ± 0.028. The same measure for AATAAGGGA: 1.03 ± 0.1. With AATAAGGGGG, the switch fluorescence ratio was 1.01 ± 0.064.

As to AATAAGTTAA, the switch fluorescence ratio worked out at 1 ± 0.026.

Turning to AATAATAAGA, the switch fluorescence ratio came to 1 ± 0.017. To AATAATAGCT belongs 1.01 ± 0.041.

AATAATCGAG: the switch fluorescence ratio was 1.027 ± 0.0093.

In the case of AATAATCGGC, the switch fluorescence ratio was found to be 0.994 ± 0.06. To AATAATGCAA belongs 1.07 ± 0.022; to AATAATGCGT, 0.994 ± 0.034; to AATAATGCTT, 0.978 ± 0.014. To AATAATTCTG belongs 0.984 ± 0.053.

Take AATAATTTCG: the switch fluorescence ratio turned out to be 1.007 ± 0.0082. The same measure for AATACAGGCT: 0.999 ± 0.024; for AATACAGTGA: 0.9986 ± 0.00012; for AATACGGTAT: 1.05 ± 0.05. For the sequence AATACTACTA, the switch fluorescence ratio was determined as 1.05 ± 0.053. As to AATACTGATG, the switch fluorescence ratio worked out at 1.007 ± 0.0032. The same measure for AATAGACGAA: 1.01 ± 0.043; for AATAGAGGGG: 0.9926 ± 0.0071; for AATAGCTACT: 1.076 ± 0.01. The same measure for AATAGGAAGT: 1.011 ± 0.007. To AATAGGGCCT belongs 1.02 ± 0.023.

Consider AATAGGGGCT, for which the switch fluorescence ratio is 1.02 ± 0.054.

Turning to AATAGGGGTG, the switch fluorescence ratio was determined as 1.01 ± 0.043.

Turning to AATAGTGGCA, the switch fluorescence ratio was determined as 1.02 ± 0.044. The same measure for AATAGTGGGC: 1.01 ± 0.043; for AATAGTGGGT: 1 ± 0.013. Take AATAGTTTAT: the switch fluorescence ratio amounted to 0.986 ± 0.022.

As for AATATAATGT, the switch fluorescence ratio amounted to 1.03 ± 0.021. To AATATCTCAC belongs 1.022 ± 0.0087. The same measure for AATATGAGAT: 0.9799 ± 0.0073; for AATATGAGTA: 0.993 ± 0.038; for AATATGGGTT: 0.9802 ± 0.0091. The same measure for AATATGTCGG: 1 ± 0.021; for AATATTATTA: 1.019 ± 0.0041. For the sequence AATATTTATT, the switch fluorescence ratio stood at 1.02 ± 0.0091.

For the sequence AATATTTGGC, the switch fluorescence ratio was 1 ± 0.059.

Take AATATTTTTC: the switch fluorescence ratio was determined as 1.01 ± 0.015.

Take AATCAAACAT: the switch fluorescence ratio amounted to 1.03 ± 0.018. As for AATCAATCTA, the switch fluorescence ratio came out at 1.01 ± 0.071. Consider AATCAATTAC, for which the switch fluorescence ratio was 1.123 ± 0.011.

In the case of AATCAGCATT, the switch fluorescence ratio is 1.08 ± 0.076. To AATCAGGGTA belongs 1.01 ± 0.04; to AATCAGGGTG, 1.16 ± 0.01; to AATCAGTGTA, 1 ± 0.051. The same measure for AATCAGTTTG: 1.022 ± 0.0094; for AATCCAAAAG: 1.026 ± 0.0043. To AATCCCTTTT belongs 1 ± 0.031; to AATCCGCTCT, 1.2 ± 0.11. With AATCCTGCGT, the switch fluorescence ratio was determined as 1.16 ± 0.21. The same measure for AATCGAATAT: 1 ± 0.015; for AATCGATTTG: 0.989 ± 0.032; for AATCGCGGGC: 1.09 ± 0.024.

Take AATCGGATTG: the switch fluorescence ratio came to 1 ± 0.025. The same measure for AATCGGGAGT: 1.013 ± 0.0094. The same measure for AATCGGGCGC: 1.01 ± 0.048; for AATCGGGTGC: 1.05 ± 0.054. To AATCGGTAAT belongs 1.027 ± 0.0081. On to AATCGGTGGG, for which the switch fluorescence ratio was 0.997 ± 0.03. The same measure for AATCGTATAG: 0.9817 ± 0.0042; for AATCGTTAGG: 0.969 ± 0.022; for AATCTCCGAG: 1.09 ± 0.031.

Turning to AATCTGGGTG, the switch fluorescence ratio was 1.11 ± 0.034. To AATCTTGATG belongs 0.981 ± 0.03. To AATCTTGTGT belongs 0.985 ± 0.027. To AATGAAAATC belongs 1.08 ± 0.15. As to AATGAAAGAT, the switch fluorescence ratio was 0.998 ± 0.039.

The values are drawn from the supplement of paper PMC10126150.
